Data published in the supplement of paper PMC9112550, “Optimization of the antimicrobial peptide Bac7 by deep mutational scanning” (BMC Biology, 2022).

test system: Escherichia coli TOP10; assay: shrunken log2 fold change of peptide-encoding DNA abundance (4.5 h post-induction vs induction); higher = less antimicrobial activity (less host growth inhibition); details: time post-induction: 4.5 h; library: site-saturation at positions 5, 18, 19, 20
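Also: peptides expressed intracellularly from a pBAD plasmid library in pooled LB shake-flask culture, induced with 0.3% L-arabinose, DNA abundance read by NGS, three biological replicates, DESeq2 with apeglm shrinkage.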

Sequence | shrunken log2 fold change
RRIRMRPPRLPRPRPRPGSVPRP | 0.696
RRIRFRPPRLPRPRPRPEKCPRP | 0.00859
RRIRLRPPRLPRPRPRPWTGPRP | -0.0428
RRIRARPPRLPRPRPRPSIWPRP | 0.352
RRIRLRPPRLPRPRPRPKSHPRP | -0.261
RRIRQRPPRLPRPRPRPASCPRP | 0.182
RRIRTRPPRLPRPRPRPITYPRP | -0.0511
RRIRFRPPRLPRPRPRPRHSPRP | 0.0584
RRIRERPPRLPRPRPRPLGDPRP | -0.0627
RRIRKRPPRLPRPRPRPTCMPRP | 0.576
RRIRPRPPRLPRPRPRPKYQPRP | -0.411
RRIRDRPPRLPRPRPRPGRTPRP | -0.0421
RRIRCRPPRLPRPRPRPNSGPRP | -0.224
RRIRRRPPRLPRPRPRPYAQPRP | -0.252
RRIRQRPPRLPRPRPRPYMHPRP | -0.512
RRIRRRPPRLPRPRPRPINTPRP | -0.364
RRIRKRPPRLPRPRPRPSKMPRP | 0.025
RRIRCRPPRLPRPRPRPDCFPRP | 0.182
RRIRKRPPRLPRPRPRPTGPPRP | 0.588
RRIRKRPPRLPRPRPRPSHSPRP | -0.47
RRIRPRPPRLPRPRPRPVNKPRP | -0.521
RRIRPRPPRLPRPRPRPWKCPRP | 0.0176
RRIRRRPPRLPRPRPRPELTPRP | -0.0257

Sequence | shrunken log2 fold change
RRIRVRPPRLPRPRPRPHDMPRP | -0.0267
RRIRNRPPRLPRPRPRPESKPRP | -0.0938
RRIRFRPPRLPRPRPRPVYGPRP | -0.286
RRIRVRPPRLPRPRPRPAWVPRP | 0.459
RRIRYRPPRLPRPRPRPCLGPRP | -0.231
RRIRYRPPRLPRPRPRPPMVPRP | -0.35
RRIRARPPRLPRPRPRPNIWPRP | 0.133
RRIRRRPPRLPRPRPRPQDRPRP | 0.0852
RRIRDRPPRLPRPRPRPSHDPRP | -0.339
RRIRRRPPRLPRPRPRPCVCPRP | 0.082
RRIRWRPPRLPRPRPRPYKFPRP | -0.22
RRIRCRPPRLPRPRPRPKLVPRP | -0.152
RRIRNRPPRLPRPRPRPLVEPRP | -0.187
RRIRARPPRLPRPRPRPYQDPRP | -0.00221
RRIRWRPPRLPRPRPRPGCSPRP | 0.551
RRIRARPPRLPRPRPRPRHMPRP | -0.00102
RRIRIRPPRLPRPRPRPQNAPRP | -0.297
RRIRDRPPRLPRPRPRPTTSPRP | 0.335
RRIRNRPPRLPRPRPRPIGYPRP | 0.103
RRIRARPPRLPRPRPRPDHGPRP | -0.144
RRIRCRPPRLPRPRPRPAAPPRP | 0.668
RRIRKRPPRLPRPRPRPHIWPRP | 0.143
RRIRSRPPRLPRPRPRPLRKPRP | 0.383

Sequence | shrunken log2 fold change
RRIRVRPPRLPRPRPRPFMLPRP | -0.279
RRIRHRPPRLPRPRPRPLNSPRP | -0.883
RRIRGRPPRLPRPRPRPRQPPRP | 0.283
RRIRHRPPRLPRPRPRPTNRPRP | -0.162
RRIRRRPPRLPRPRPRPVPDPRP | 0.173
RRIRCRPPRLPRPRPRPKNSPRP | -0.159
RRIRCRPPRLPRPRPRPLQTPRP | 0.443
RRIRYRPPRLPRPRPRPSWEPRP | -0.153
RRIRYRPPRLPRPRPRPQPRPRP | 0.463
RRIRERPPRLPRPRPRPNGRPRP | -0.033
RRIRDRPPRLPRPRPRPFVVPRP | -0.266
RRIRCRPPRLPRPRPRPTTQPRP | 0.0242
RRIRWRPPRLPRPRPRPIYLPRP | -0.674
RRIRQRPPRLPRPRPRPLQFPRP | -0.168
RRIRMRPPRLPRPRPRPKVPPRP | 0.882
RRIRPRPPRLPRPRPRPPPAPRP | 2.01
RRIRLRPPRLPRPRPRPCWYPRP | -0.176
RRIRKRPPRLPRPRPRPGIVPRP | 0.0403
RRIRNRPPRLPRPRPRPLDYPRP | -0.309
RRIRVRPPRLPRPRPRPHSEPRP | -0.392
RRIRSRPPRLPRPRPRPSFQPRP | -0.282
RRIRERPPRLPRPRPRPPCPPRP | 1.27
RRIRIRPPRLPRPRPRPQVYPRP | 0.0822

Sequence | shrunken log2 fold change
RRIRKRPPRLPRPRPRPDDQPRP | -0.018
RRIRWRPPRLPRPRPRPCCQPRP | 0.0191
RRIRVRPPRLPRPRPRPTLLPRP | -0.196
RRIRKRPPRLPRPRPRPEIPPRP | -0.00514
RRIRSRPPRLPRPRPRPSYKPRP | -0.659
RRIRKRPPRLPRPRPRPLKRPRP | 0.321
RRIRSRPPRLPRPRPRPWQAPRP | 0.214
RRIRVRPPRLPRPRPRPAVFPRP | 0.265
RRIRERPPRLPRPRPRPFTLPRP | -0.21
RRIRPRPPRLPRPRPRPCVMPRP | -0.162
RRIRNRPPRLPRPRPRPYKWPRP | -0.233
RRIRRRPPRLPRPRPRPSSCPRP | 0.055
RRIRERPPRLPRPRPRPDLQPRP | 0.00923
RRIRNRPPRLPRPRPRPQFFPRP | -0.0257
RRIRVRPPRLPRPRPRPVVYPRP | 0.0805
RRIRGRPPRLPRPRPRPMSTPRP | 0.44
RRIRKRPPRLPRPRPRPNTQPRP | -0.0781
RRIRWRPPRLPRPRPRPQCKPRP | 0.132
RRIRYRPPRLPRPRPRPFQKPRP | -0.0884
RRIRRRPPRLPRPRPRPYVAPRP | -0.361
RRIRGRPPRLPRPRPRPWAYPRP | -0.151
RRIRHRPPRLPRPRPRPESSPRP | 0.087
